The RNAGym collection of RNA variant scans (doi:10.1101/gr.219683.116)

B1: mRNA-splicing (parent)
chain: AGUUGCUGCUGGGAGCUCCAGCACAGUGAAAUGGACAGAAGGGCAGAGCAA

Variants of: B1
Assay: exon inclusion enrichment index; higher = more inclusion; WT1 exon 5 minigene, HEK293

Variant	exon inclusion enrichment index
G5C C6U G8C C9U U10C A35U C36U	0.0294
G5C C6U G8C C9U U10C A35U C36A	0.00287
G5C C6U G8C C9U U10C A35U C36G	0.181
G5C C6U G8C C9U U10C A35G C36A	1.07
G5C C6U G8C C9U U10C A35G C36G	0.14
G5C C6U G8C C9U U10C A35G C36U	0.016
G5C C6U G8C C9U U10C C18A C19U	0.0905
G5C C6U G8C C9U U10C C18A C19G	0.289
G5C C6U G8C C9U U10C C18A C19A	0.438
G5C C6U G8C C9U U10C A47C G48A	1.12
G5C C6U G8C C9U U10C A47C G48U	1.77
G5C C6U G8C C9U U10C A47C G48C	1.78
G5C C6U G8C C9U U10C A47U G48C	1.37
G5C C6U G8C C9U U10C A47U G48A	1.58
G5C C6U G8C C9U U10C A47U G48U	1.45
G5C C6U G8C C9U U10C G11U	1
G5C C6U G8C C9U U10C G11C	2.41
G5C C6U G8C C9U U10C G11A	0.742
G5C C6U G8C C9U U10C G15U C16U	1.32
G5C C6U G8C C9U U10C G15U C16G	1.44
G5C C6U G8C C9U U10C G15U C16A	1.38
G5C C6U G8C C9U U10C G26U U27A	0.886
G5C C6U G8C C9U U10C G26U U27C	3.41
G5C C6U G8C C9U U10C G26U U27G	2.97

Variant	exon inclusion enrichment index
G5C C6U G8C C9U U10C G15U	2.23
G5C C6U G8C C9U U10C G15C	2.54
G5C C6U G8C C9U U10C G15A	0.641
G5C C6U G8C C9U U10C G26C U27C	3.12
G5C C6U G8C C9U U10C G26C U27G	3.22
G5C C6U G8C C9U U10C G26C U27A	2.14
G5C C6U G8C C9U U10C C22U A23U	1.09
G5C C6U G8C C9U U10C C22U A23C	1.22
G5C C6U G8C C9U U10C C22U A23G	2.04
G5C C6U G8C C9U U10C A30C	2.23
G5C C6U G8C C9U U10C A30G	2.12
G5C C6U G8C C9U U10C A30U	1.34
G5C C6U G8C C9U U10C G38A A39G	1.85
G5C C6U G8C C9U U10C G38A A39U	0.134
G5C C6U G8C C9U U10C G38A A39C	1.48
G5C C6U G8C C9U U10C G21C C22G	3.01
G5C C6U G8C C9U U10C G21C C22U	1.79
G5C C6U G8C C9U U10C G21C C22A	1.71
G5C C6U G8C C9U U10C C22G	2.51
G5C C6U G8C C9U U10C C22U	1.44
G5C C6U G8C C9U U10C C22A	1.57
G5C C6U G8C C9U U10C A35G	0.766
G5C C6U G8C C9U U10C A35U	0.452
G5C C6U G8C C9U U10C A35C	0.541

Variant	exon inclusion enrichment index
G5C C6U G8C C9U U10C C22A A23G	2.07
G5C C6U G8C C9U U10C C22A A23C	2.99
G5C C6U G8C C9U U10C C22A A23U	1.31
G5C C6U G8C C9U U10C A29U A30U	0.629
G5C C6U G8C C9U U10C A29U A30G	2.16
G5C C6U G8C C9U U10C A29U A30C	1.51
G5C C6U G8C C9U U10C A39U	0.0783
G5C C6U G8C C9U U10C A39G	0.96
G5C C6U G8C C9U U10C A39C	0.436
G5C C6U G8C C9U U10C C22G A23U	0.248
G5C C6U G8C C9U U10C C22G A23G	0.846
G5C C6U G8C C9U U10C C22G A23C	0.747
G5C C6U G8C C9U U10C G11U G12U	0.188
G5C C6U G8C C9U U10C G11U G12C	0.558
G5C C6U G8C C9U U10C G11U G12A	0.0218
G5C C6U G8C C9U U10C A35C C36G	1.57
G5C C6U G8C C9U U10C A35C C36U	0.258
G5C C6U G8C C9U U10C A35C C36A	1.37
G5C C6U G8C C9U U10C G28A	0.598
G5C C6U G8C C9U U10C G28C	1.55
G5C C6U G8C C9U U10C G28U	0.486
G5C C6U G8C C9U U10C C36G A37U	0.948
G5C C6U G8C C9U U10C C36G A37C	0.671
G5C C6U G8C C9U U10C C36G A37G	0.3

Variant	exon inclusion enrichment index
G5C C6U G8C C9U U10C G28A A29G	0.736
G5C C6U G8C C9U U10C G28A A29U	0.475
G5C C6U G8C C9U U10C G28A A29C	1.12
G5C C6U G8C C9U U10C C16G U17C	1.12
G5C C6U G8C C9U U10C C16G U17A	2.4
G5C C6U G8C C9U U10C C16G U17G	0.254
G5C C6U G8C C9U U10C A40G G41A	0.782
G5C C6U G8C C9U U10C A40G G41C	3.24
G5C C6U G8C C9U U10C A40G G41U	1.75
G5C C6U G8C C9U U10C G12U	1.11
G5C C6U G8C C9U U10C G12A	0.889
G5C C6U G8C C9U U10C G12C	1.51
G5C C6U G8C C9U U10C G34A A35U	0.568
G5C C6U G8C C9U U10C G34A A35C	1.47
G5C C6U G8C C9U U10C G34A A35G	0.76
G5C C6U G8C C9U U10C G13C A14G	1.94
G5C C6U G8C C9U U10C G13C A14C	1.15
G5C C6U G8C C9U U10C G13C A14U	1.35
G5C C6U G8C C9U U10C G12U G13U	0.0261
G5C C6U G8C C9U U10C G12U G13C	0.698
G5C C6U G8C C9U U10C G12U G13A	0.153
G5C C6U G8C C9U U10C G28U A29G	1.84
G5C C6U G8C C9U U10C G28U A29C	1.48
G5C C6U G8C C9U U10C G28U A29U	0.419

Variant	exon inclusion enrichment index
G5C C6U G8C C9U U10C C44G A45U	1.26
G5C C6U G8C C9U U10C C44G A45G	0.398
G5C C6U G8C C9U U10C C44G A45C	3.14
G5C C6U G8C C9U U10C A29G A30U	0.538
G5C C6U G8C C9U U10C A29G A30C	0.838
G5C C6U G8C C9U U10C A29G A30G	1.37
G5C C6U G8C C9U U10C A29C	1.75
G5C C6U G8C C9U U10C A29G	2.54
G5C C6U G8C C9U U10C A29U	0.63
G5C C6U G8C C9U U10C C18A	1.39
G5C C6U G8C C9U U10C C18U	1.62
G5C C6U G8C C9U U10C C18G	2.21
G5C C6U G8C C9U U10C G33C G34C	1.12
G5C C6U G8C C9U U10C G33C G34U	1.29
G5C C6U G8C C9U U10C G33C G34A	1.24
G5C C6U G8C C9U U10C C19G A20C	1.8
G5C C6U G8C C9U U10C C19G A20G	1.04
G5C C6U G8C C9U U10C C19G A20U	1.72
G5C C6U G8C C9U U10C C18G C19A	2.82
G5C C6U G8C C9U U10C C18G C19G	2.78
G5C C6U G8C C9U U10C C18G C19U	0.674
G5C C6U G8C C9U U10C G12C G13C	0.312
G5C C6U G8C C9U U10C G12C G13A	0.931
G5C C6U G8C C9U U10C G12C G13U	0.036

Variant	exon inclusion enrichment index
G5C C6U G8C C9U U10C A31G U32C	3.89
G5C C6U G8C C9U U10C A31G U32G	1.04
G5C C6U G8C C9U U10C A31G U32A	3.83
G5C C6U G8C C9U U10C A31U U32G	1.04
G5C C6U G8C C9U U10C A31U U32C	2.61
G5C C6U G8C C9U U10C A31U U32A	0.179
G5C C6U G8C C9U U10C A25U G26C	2.38
G5C C6U G8C C9U U10C A25U G26U	1.7
G5C C6U G8C C9U U10C A25U G26A	2.23
G5C C6U G8C C9U U10C G21A C22G	1.93
G5C C6U G8C C9U U10C G21A C22A	0.718
G5C C6U G8C C9U U10C G21A C22U	0.846
G5C C6U G8C C9U U10C C36A A37G	0.805
G5C C6U G8C C9U U10C C36A A37U	0.939
G5C C6U G8C C9U U10C C36A A37C	2.33
G5C C6U G8C C9U U10C G28C A29C	1.58
G5C C6U G8C C9U U10C G28C A29G	2.82
G5C C6U G8C C9U U10C G28C A29U	1.13
G5C C6U G8C C9U U10C G26A U27A	1.96
G5C C6U G8C C9U U10C G26A U27C	3.55
G5C C6U G8C C9U U10C G26A U27G	2.81
G5C C6U G8C C9U U10C G34C A35U	0.385
G5C C6U G8C C9U U10C G34C A35C	0.141
G5C C6U G8C C9U U10C G34C A35G	1.38

Variant	exon inclusion enrichment index
G5C C6U G8C C9U U10C C24U A25C	3.44
G5C C6U G8C C9U U10C C24U A25U	1.95
G5C C6U G8C C9U U10C C24U A25G	3.05
G5C C6U G8C C9U U10C A39G A40U	0.232
G5C C6U G8C C9U U10C A39G A40G	0.186
G5C C6U G8C C9U U10C A39G A40C	1.79
G5C C6U G8C C9U U10C A23G C24G	3.51
G5C C6U G8C C9U U10C A23G C24U	0.696
G5C C6U G8C C9U U10C A23G C24A	3.38
G5C C6U G8C C9U U10C C16A U17G	1.15
G5C C6U G8C C9U U10C C16A U17C	1.6
G5C C6U G8C C9U U10C C16A U17A	1.38
G5C C6U G8C C9U U10C A37U	1.73
G5C C6U G8C C9U U10C A37G	2.83
G5C C6U G8C C9U U10C A37C	3.08
G5C C6U G8C C9U U10C G12A G13C	0.692
G5C C6U G8C C9U U10C G12A G13U	0.128
G5C C6U G8C C9U U10C G12A G13A	0.681
G5C C6U G8C C9U U10C A47C	2.38
G5C C6U G8C C9U U10C A47U	1.87
G5C C6U G8C C9U U10C A47G	0.327
G5C C6U G8C C9U U10C G15C C16U	1.9
G5C C6U G8C C9U U10C G15C C16A	1.75
